The record followed here is patent publication US20220267427A1 (SYSMEX, published 2022).

One experiment concerns the target T1, rfCK18 (127-430) (human, UniProt P05783 127-430).
T1 construct: Bought (Proteintech Inc.); captured through an anti-GST or penta HIS antibody, the tag is not described
T1 sequence: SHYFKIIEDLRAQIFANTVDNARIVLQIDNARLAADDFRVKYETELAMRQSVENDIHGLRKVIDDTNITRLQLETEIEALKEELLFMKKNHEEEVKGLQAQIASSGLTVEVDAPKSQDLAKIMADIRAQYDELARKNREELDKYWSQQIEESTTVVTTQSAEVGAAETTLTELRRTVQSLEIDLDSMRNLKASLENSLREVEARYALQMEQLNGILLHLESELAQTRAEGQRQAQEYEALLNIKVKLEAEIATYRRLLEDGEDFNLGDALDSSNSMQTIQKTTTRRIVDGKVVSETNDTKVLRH
As to the kind of experiment: solid phase ELISA; antigen (0.3 ug/mL) captured by anti-GST or penta HIS antibody on plate, antibody 5 to 10 ng/mL. As for the experimental part:
(1) An ANTI GST antibody or a penta HIS antibody was added to an ELISA plat at 2.5 μg/mL and 50 μL/well, and the plate was allowed to stand at 4° C. overnight to immobilize the antibody. Thereafter, the plate was washed three times with PBST, and Buffer I′ (10 mM NaH₂PO₄.2H₂O, 149.7 mM NaCl, 2.5 mM EDTA 2Na, 0.10% BSA, pH 7.0) was added thereto at 200 μL/well to prepare a plate stored at 4° C. overnight. […] (3) The plate was washed three times with PBST, and 50 μL each of each antigen diluent was added thereto, followed by shaking for 45 minutes. […] (6) The plate was washed three times with PBST, and 15000-fold diluted Peroxidase-conjugated Affinipure F(ab)′2 Fragment Goat Anti-Mouse IgG (H+L) (Jackson) was added thereto at 50 μL/well, followed by shaking for 45 minutes. (7) The plate was washed three times with PBST, TMB Mix (1-step Ultra TMB-ELISA (Thermo Scientific):3% H₂O₂: Phosphate-Citrate buffer (Sigma)=15:0.15:14.85) was added thereto at 100 μL/well, and the mixture was reacted at room temperature for 10 minutes. Thereafter, 1 M H₂SO₄ was added thereto at 100 μL/well to stop the reaction. (8) Absorbance of the reaction solution at 450 nm was measured with a plate reader.
(In general: An ELISA detects its analyte on a solid surface through an enzyme-linked reagent.)

The target of experiment [1] is T2, fCK18 in apoptosis-induced HepG2 cell culture supernatant (human, UniProt P05783 239-397).
T2 construct: Natural CK18 fragment from the culture supernatant of apoptosis-induced HepG2 cells (band around 18 KDa); also called fCK18 in apoptosis-inducing cells
T2 sequence: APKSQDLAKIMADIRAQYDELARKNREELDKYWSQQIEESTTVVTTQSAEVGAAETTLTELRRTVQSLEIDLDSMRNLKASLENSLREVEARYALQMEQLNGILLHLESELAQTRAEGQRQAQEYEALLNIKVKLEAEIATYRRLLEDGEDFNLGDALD
Briefly: plate ELISA with K18-624 magnetic microbeads, K18-328Fab-ALP detector. As to the method: (§1) Measurement samples of 3-fold dilution series (3-fold to 6561-fold dilution) were prepared from the apoptosis-induced HepG2 cell culture supernatant with a diluent (TBS, pH 7.5, 2% BSA), and fCK18 was measured. […] Based on the prepared calibration curve, fCK18 in the measurement sample was measured.
(§2) This solution was added to an ELISA plate at 25 μL/well, then each measurement sample was added at 25 μL/well, and the plate was incubated (1500 rpm, RT, 20 min). […] (3) After washing the plate, the HISCL (registered trademark) R4 reagent was added thereto at 50 μL/well, and then the mixture was stirred (1500 rpm, RT, 1 min). Thereafter, the HISCL (registered trademark) R5 reagent was added at 100 μL/well, and then the mixture was stirred (1000 rpm, RT, 10 sec). (4) Luminescence intensity was measured with a plate reader.

Experiment [2] deals with T2, fCK18 in apoptosis-induced HepG2 cell …. As to the kind of experiment: HISCL sandwich immunoassay; K18-624 magnetic microbeads capture, K18-328Fab-ALP detector.
The target is the same in experiment [3]. Briefly: plate ELISA with K18-624 magnetic microbeads, K18-328Fab-ALP detector; fCK18 0.09 ng/mL. As to the method:
as §1, §2

The target is the same in experiment [4]. As to the kind of experiment: plate ELISA with K18-624 magnetic microbeads, K18-328Fab-ALP detector; fCK18 6.79 ng/mL. As for the experimental part: as §1, §2
The target is the same in experiment [5]. As to the kind of experiment: plate ELISA with K18-624 magnetic microbeads, K18-328Fab-ALP detector; fCK18 60.73 ng/mL. As for the experimental part: as §1, §2
Experiment [6] shares this target. As to the kind of experiment: HISCL sandwich immunoassay; K18-624 magnetic microbeads capture, K18-328Fab-ALP detector; fCK18 0.28 ng/mL.

Bounds are passed on as bounds.

B1: K18-328 antibody (antibody, V domains shown)
VH: QVHLQQSAAELARPGASVKMSCKASGYTFTNYTIHWIKQRPGQGLEWIGYINPSSGYTDYNQNFKDKTTLTADKSSTTVYMQLSSLTSEDSAVYYCARQIPFAYWGQGTLVTVSA
VL: not shown
notes: Mouse monoclonal antibody from a hybridoma (immunogen full length rCK18)
For B1, the Abs450 in the experiment with rfCK18 (127-430) was determined as 0.89.

B2: K18-624 antibody (antibody, V domains shown)
VH: DVQLVESGGGLVQPGGSRKLSCAASGFTFSSFGMHWVRQAPEKGLEWVAYISSGSTTIYYADTVKGRFTISRDNPKNTLFLQMTSLRSEDTAMYYCARRGMITTGAWFAYWGQGTLVTVSA
VL: DILLTQSPAILSVSPGERVSFSCRASQRIGTSIHWYQQRTNGSPRLLIKYASESISGIPSRFSGSGSGTDFTLSINSVESEDIADYYCQQSYIWPFTFGSGTKLEIK
notes: Mouse monoclonal antibody from a hybridoma (Balb/C mouse immunised with Peptide 1-KLH)
On to B2, for which the “fCK18 concentration detectable (S/N ratio of 2 or more)” value in experiment [1] is no less than 0.09 ng/mL; in experiment [2], no less than 0.28 ng/mL. The “fold detection sensitivity compared with Comparative Example 1 (M30 antibody)” value in experiment [1] was roughly 24 fold; in experiment [2], roughly 8 fold. Further, the S/N ratio in experiment [3] was determined as 2.7; in experiment [4], 158; in experiment [5] it was 1850; in experiment [6], 3.8.
